Test results from paper PMC8800102.
Read-outs that look alike come from different tables or passages of the source.

Columns and labels:
Test in all cases: NMR titration
[1] = biological target: T1, Sds3 capped Tudor domain (CTD) (mouse, UniProt Q8BR65 250-326)
T1 sequence: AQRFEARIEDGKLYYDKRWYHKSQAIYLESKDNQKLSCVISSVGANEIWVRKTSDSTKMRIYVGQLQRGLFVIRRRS

[2] = biological target: T1, Sds3 capped Tudor domain (CTD); remark: listed apart in the source
[3] = biological target: T1, Sds3 capped Tudor domain (CTD); remark: listed apart in the source

B1: T2G4 (structured_DNA)
DNA: TTGGGG
B1: binds [1].

B2: SELEX 7mer motif (ssDNA)
DNA: TGTGGTT
B2: no binding [2].

B3: random RNA 8mer (ssRNA)
RNA: AACUGUCG
B3: no binding [3].
